Experiments:
[1] = biological target: RelA (p65), subunit of RelA-p50 heterodimer;p50, subunit of RelA-p50 heterodimer (mouse (murine);mouse (murine), UniProt Q04207;P25799 19-321;39-350, |); assay: stopped-flow fluorescence
RelA (p65) homodimer = RelA (p65) homodimer (UniProt Q04207 19-321); assay: stopped-flow fluorescence
Chain of RelA (p65) homodimer (Q04207 19-321): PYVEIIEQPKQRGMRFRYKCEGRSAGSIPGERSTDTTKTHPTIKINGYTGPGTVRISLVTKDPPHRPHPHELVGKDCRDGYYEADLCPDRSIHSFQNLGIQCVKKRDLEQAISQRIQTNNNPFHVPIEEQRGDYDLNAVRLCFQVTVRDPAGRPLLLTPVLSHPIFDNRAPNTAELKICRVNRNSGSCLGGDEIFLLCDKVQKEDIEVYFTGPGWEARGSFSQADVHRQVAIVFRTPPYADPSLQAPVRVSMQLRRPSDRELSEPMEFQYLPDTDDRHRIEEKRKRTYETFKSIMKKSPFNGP

Chain of RelA (p65), subunit of RelA-p50 heterodimer;p50, subunit of RelA-p50 heterodimer (Q04207 19-321, chain 1 of 2): as the sequence (Q04207 19-321) above
Chain of RelA (p65), subunit of RelA-p50 heterodimer;p50, subunit of RelA-p50 heterodimer (P25799 39-350, chain 2 of 2): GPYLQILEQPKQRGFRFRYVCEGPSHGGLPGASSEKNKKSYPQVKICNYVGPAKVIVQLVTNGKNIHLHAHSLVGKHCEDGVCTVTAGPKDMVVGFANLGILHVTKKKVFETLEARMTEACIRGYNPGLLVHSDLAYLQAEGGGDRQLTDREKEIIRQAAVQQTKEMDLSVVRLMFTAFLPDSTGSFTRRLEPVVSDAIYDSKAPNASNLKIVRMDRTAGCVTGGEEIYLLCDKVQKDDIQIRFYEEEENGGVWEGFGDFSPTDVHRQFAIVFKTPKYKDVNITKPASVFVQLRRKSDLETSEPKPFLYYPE

B1: IFN-kB hairpin (structured_DNA)
DNA: GGGAAATTCCTCCCCCAGGAATTTCCC
modifications: 5' AmMC6 amino linker
Does B1 bind [1]?
Result: binds

Does B1 bind (RelA (p65) homodimer)?
Result: binds
